# Measurements from paper PMC3441732, “Marburg Virus VP35 Can Both Fully Coat the Backbone and Cap the Ends of dsRNA for Interferon Antagonism”.
# T1: RESTV VP35 RBD (Reston virus (RESTV), UniProt Q8JPY0 205-329)
# T1 sequence: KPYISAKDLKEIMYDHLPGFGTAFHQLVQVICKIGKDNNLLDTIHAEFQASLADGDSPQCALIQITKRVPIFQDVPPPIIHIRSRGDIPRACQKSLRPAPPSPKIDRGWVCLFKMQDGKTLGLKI
# B1: 18-bp dsRNA with 5' overhang (dsRNA)
# RNA 1: GAGAGAAGGAGGGAGGGAGGA
# RNA 2: UCCUCCCUCCCUCCUUCUCUC
# B2: 18-bp blunt-ended dsRNA (dsRNA)
# RNA 1: AGAAGGAGGGAGGGAGGA
# RNA 2: UCCUCCCUCCCUCCUUCU
# B3: 18-bp dsRNA with 3' overhang (dsRNA)
# RNA 1: AGAAGGAGGGAGGGAGGAGAG
# RNA 2: CUCUCCUCCCUCCCUCCUUCU
# B4: 12-bp palindromic dsRNA (crystal) (dsRNA)
# RNA 1: CUAGACGUCUAG
# RNA 2: CUAGACGUCUAG
# Columns and labels:
# MARV VP35 RBD [1] = biological target: T2, MARV VP35 RBD (Marburg virus, UniProt P35259 205-329); experiment: dual-filter dot blot; Hill 2.1±0.2; 10 mM Tris pH 8.0, 200 mM NaCl, 2 mM TCEP ([…], and ITC); temperature not stated; details: protein: recombinant; tags: 6xHis (pET46b), TEV-cleaved; chain copies: 4; label: 5'-32P sense strand
# T2 sequence (P35259 205-329): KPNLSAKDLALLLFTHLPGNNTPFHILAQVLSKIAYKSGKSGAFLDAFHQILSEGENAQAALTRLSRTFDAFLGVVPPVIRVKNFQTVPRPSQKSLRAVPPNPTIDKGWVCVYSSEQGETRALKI
# EBOV VP35 RBD [2] = biological target: T3, EBOV VP35 RBD (Ebola virus, UniProt Q05127 216-340); experiment: dual-filter dot blot; Hill 2.9±0.3; 10 mM Tris pH 8.0, 200 mM NaCl, 2 mM TCEP ([…], and ITC); temperature not stated; details: protein: recombinant; tags: 6xHis, cleaved; label: 5'-32P sense strand (dot blot); none in ITC; blunt
# T3 sequence (Q05127 216-340): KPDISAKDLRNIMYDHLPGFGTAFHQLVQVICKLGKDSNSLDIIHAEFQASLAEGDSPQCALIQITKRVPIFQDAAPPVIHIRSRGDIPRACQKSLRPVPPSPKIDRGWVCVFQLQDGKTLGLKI
# RESTV VP35 RBD [3] = biological target: T1, RESTV VP35 RBD; experiment: dual-filter dot blot; Hill 2.6±0.2; 10 mM Tris pH 8.0, 200 mM NaCl, 2 mM TCEP ([…], and ITC); temperature not stated; details: protein: recombinant; tags: 6xHis, cleaved; chain copies: 2; label: 5'-32P sense strand (dot blot); none in ITC; blunt
# MARV VP35 RBD [4] = biological target: T2, MARV VP35 RBD; experiment: ITC; 10 mM Tris pH 8.0, 200 mM NaCl, 2 mM TCEP ([…], and ITC); temperature not stated; details: protein: recombinant, tags: 6xHis (pET46b), TEV-cleaved, chain copies: 4, label: 5'-32P sense strand (dot blot), none in ITC
# MARV VP35 RBD [5] = biological target: T2, MARV VP35 RBD; experiment: dual-filter dot blot; Hill 3.5±0.3; 10 mM Tris pH 8.0, 200 mM NaCl, 2 mM TCEP ([…], and ITC); temperature not stated; details: protein: recombinant; tags: 6xHis (pET46b), TEV-cleaved; chain copies: 4; label: 5'-32P sense strand (dot blot); none in ITC; blunt
# RESTV VP35 RBD [6] = biological target: T1, RESTV VP35 RBD; experiment: dual-filter dot blot; Hill 3.4±0.4; 10 mM Tris pH 8.0, 200 mM NaCl, 2 mM TCEP ([…], and ITC); temperature not stated; details: protein: recombinant; tags: 6xHis, cleaved; chain copies: 2; label: 5'-32P sense strand (dot blot); none in ITC
# MARV VP35 RBD [7] = biological target: T2, MARV VP35 RBD; experiment: dual-filter dot blot; Hill 3.1±0.2; 10 mM Tris pH 8.0, 200 mM NaCl, 2 mM TCEP ([…], and ITC); temperature not stated; details: protein: recombinant; tags: 6xHis (pET46b), TEV-cleaved; chain copies: 4; label: 5'-32P sense strand (dot blot); none in ITC
# EBOV VP35 RBD [8] = biological target: T3, EBOV VP35 RBD; experiment: dual-filter dot blot; Hill 3.6±0.4; 10 mM Tris pH 8.0, 200 mM NaCl, 2 mM TCEP ([…], and ITC); temperature not stated; details: protein: recombinant; tags: 6xHis, cleaved; label: 5'-32P sense strand (dot blot); none in ITC
# MARV VP35 RBD [9] = biological target: T2, MARV VP35 RBD; experiment: X-ray crystal structure; 10 mM Tris pH 8.0, 200 mM NaCl, 2 mM TCEP ([…], and ITC); temperature not stated; details: protein: recombinant; tags: 6xHis (pET46b), TEV-cleaved; chain copies: 4
binder,measurement,setting,value
B1,Kd,MARV VP35 RBD [1],4.4 ± 0.3 µM
B2,Kd,EBOV VP35 RBD [2],1.9 ± 0.1 µM
same,Kd,RESTV VP35 RBD [3],2.5 ± 0.1 µM
same,Kd,MARV VP35 RBD [4]; blunt,28.6 ± 16.5 µM
same,Kd,MARV VP35 RBD [5],8.4 ± 0.2 µM
B3,Kd,RESTV VP35 RBD [6],6 ± 0.2 µM
same,Kd,MARV VP35 RBD [7],9.3 ± 0.2 µM
same,Kd,EBOV VP35 RBD [8],17.1 ± 0.7 µM
same,Kd,MARV VP35 RBD [4],3.4 µM
B4,binding result,MARV VP35 RBD [9],binds
